Assay results reported in patent publication US8598314B2 (priority 2007, dated 2013).
Read-outs that look alike come from different tables or passages of the source.

Tests used:
Recombinant DPP-IV = Recombinant DPP-IV (Homo sapiens, UniProt P27487); test: DPP-IV resistance assay by mass spectrometry
Method: The peptides were then desalted and concentrated on a C18 peptide micro trap (Michrom Bioresources, Inc., Auburn, Calif.) prior to introduction to a LTQ FT™ mass spectrometer (Thermo-Electron Corp., Waltham, Mass.) via an autosampler (Michrom Bioresources, Inc.). Peptides were eluted from a C5 packed 75 μm fused silica pico-frit column (New Objective, Inc., Woburn, Mass.) using a 5-60% acetonitrile/water gradient over 50 minutes at a flow rate of 500 nl/min. Extracted ion mass windows for the calculated m/z values of the most dominant charge states were used to search for both the parent compound and the theoretical hydrolyzed products within a given chromatogram. Exact mass was confirmed for each charge state by FT. The percentage of hydrolysis catalyzed by DPP-IV was estimated by dividing the area of product ions by the area of the total (parent+product) ions.
The estimated cleavage product conversion is based on the ratio of the ion extract area (indicated on top of the peaks) for [product ion]^5+ over that for total ions ([Mother Ion]^5++[product ion]^5+). The m/z ratios used to search for the expected ions are listed on the right side of the plots.

[1] = in vivo; cited from earlier work

Chain of Recombinant DPP-IV (P27487 whole entry, species assumed, the tested form may be a part): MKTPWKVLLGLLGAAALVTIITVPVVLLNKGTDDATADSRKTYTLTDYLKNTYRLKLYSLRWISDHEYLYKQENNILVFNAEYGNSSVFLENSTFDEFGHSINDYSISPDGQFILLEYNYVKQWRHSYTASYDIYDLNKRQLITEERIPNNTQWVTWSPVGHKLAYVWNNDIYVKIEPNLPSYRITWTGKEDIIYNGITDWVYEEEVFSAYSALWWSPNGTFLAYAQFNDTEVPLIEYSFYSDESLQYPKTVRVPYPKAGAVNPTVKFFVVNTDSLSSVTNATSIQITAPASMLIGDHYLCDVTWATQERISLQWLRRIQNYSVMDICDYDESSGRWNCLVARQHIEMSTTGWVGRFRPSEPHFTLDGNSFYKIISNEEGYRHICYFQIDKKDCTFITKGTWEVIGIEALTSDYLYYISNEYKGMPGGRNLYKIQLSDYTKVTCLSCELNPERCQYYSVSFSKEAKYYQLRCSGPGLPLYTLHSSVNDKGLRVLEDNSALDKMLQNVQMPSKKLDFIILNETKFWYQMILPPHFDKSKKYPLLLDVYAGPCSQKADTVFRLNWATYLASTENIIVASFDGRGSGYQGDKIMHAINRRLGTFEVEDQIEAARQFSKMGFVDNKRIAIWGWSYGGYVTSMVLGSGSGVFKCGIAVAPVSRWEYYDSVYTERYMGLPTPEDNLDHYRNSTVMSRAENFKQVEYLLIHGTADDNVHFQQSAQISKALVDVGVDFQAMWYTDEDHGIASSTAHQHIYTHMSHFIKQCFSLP

## CC[C@H](C)[C@H](NC(=O)[C@H](Cc1ccccc1)NC(=O)[C@H](CCC(=O)O)NC(=O)[C@H](CCCCN)NC(=O)[C@H](C)NC(=O)[C@H](C)NC(=O)[C@H](CCC(N)=O)NC(=O)CNC(=O)[C@H](CCC(=O)O)NC(=O)[C@H](CC(C)C)NC(=O)[C@H](Cc1ccc(O)cc1)NC(=O)[C@H](CO)NC(=O)[C@H](CO)NC(=O)[C@@H](NC(=O)[C@H](CC(=O)O)NC(=O)[C@H](CO)NC(=O)[C@@H](NC(=O)[C@H](Cc1ccccc1)NC(=O)[C@@H](NC(=O)CNC(=O)[C@H](CCC(=O)O)NC(=O)[C@H](C)NC(=O)[C@@H](N)Cc1c[nH]cn1)[C@@H](C)O)[C@@H](C)O)C(C)C)C(=O)N[C@@H](C)C(=O)N[C@@H](Cc1c[nH]c2ccccc12)C(=O)N[C@@H](CC(C)C)C(=O)N[C@H](C(=O)N[C@@H](CCCCN)C(=O)NCC(=O)N[C@@H](CCCNC(=N)N)C(=O)NCC(=O)NCC(=O)NCC(=O)NCCCC[C@H](N)C(=O)N1CCSC1)C(C)C [Compound 4844, GLP-1(7-37)-GG-(S)-2,6-diamino-1-(thiazolidin-3-yl)hexan-1-one amide]
Recombinant DPP-IV; treated with 0.1 mU DPP-IV
  DPP-IV resistance (in words): expected product ions were not observed

## CC[C@H](C)[C@H](NC(=O)[C@H](Cc1ccccc1)NC(=O)[C@H](CCC(=O)O)NC(=O)[C@H](CCCCN)NC(=O)[C@H](C)NC(=O)[C@H](C)NC(=O)[C@H](CCC(N)=O)NC(=O)CNC(=O)[C@H](CCC(=O)O)NC(=O)[C@H](CC(C)C)NC(=O)[C@H](Cc1ccc(O)cc1)NC(=O)[C@H](CO)NC(=O)[C@H](CO)NC(=O)[C@@H](NC(=O)[C@H](CC(=O)O)NC(=O)[C@H](CO)NC(=O)[C@@H](NC(=O)[C@H](Cc1ccccc1)NC(=O)[C@@H](NC(=O)CNC(=O)[C@H](CCC(=O)O)NC(=O)[C@H](C)NC(=O)[C@@H](N)Cc1c[nH]cn1)[C@@H](C)O)[C@@H](C)O)C(C)C)C(=O)N[C@@H](C)C(=O)N[C@@H](Cc1c[nH]c2ccccc12)C(=O)N[C@@H](CC(C)C)C(=O)N[C@H](C(=O)N[C@@H](CCCCN)C(=O)NCC(=O)N[C@@H](CCCNC(=N)N)C(=O)NCC(=O)NCC(=O)NCC(=O)NCCCC[C@H](N)C(=O)N1CCSC1C#N)C(C)C (stereo partly drawn) [Compound 4845, GLP-1(7-37)-GG-(S)-2,6-diamino-1-(thiazolidin-2-cyano-3-yl)hexan-1-one amide]
Recombinant DPP-IV
  DPP-IV resistance (in words): expected product ions were not observed

## CC[C@H](C)[C@H](NC(=O)[C@H](Cc1ccccc1)NC(=O)[C@H](CCC(=O)O)NC(=O)[C@H](CCCCN)NC(=O)[C@H](C)NC(=O)[C@H](C)NC(=O)[C@H](CCC(N)=O)NC(=O)CNC(=O)[C@H](CCC(=O)O)NC(=O)[C@H](CC(C)C)NC(=O)[C@H](Cc1ccc(O)cc1)NC(=O)[C@H](CO)NC(=O)[C@H](CO)NC(=O)[C@@H](NC(=O)[C@H](CC(=O)O)NC(=O)[C@H](CO)NC(=O)[C@@H](NC(=O)[C@H](Cc1ccccc1)NC(=O)[C@@H](NC(=O)CNC(=O)[C@H](CCC(=O)O)NC(=O)[C@H](C)NC(=O)[C@@H](N)Cc1c[nH]cn1)[C@@H](C)O)[C@@H](C)O)C(C)C)C(=O)N[C@@H](C)C(=O)N[C@@H](Cc1c[nH]c2ccccc12)C(=O)N[C@@H](CC(C)C)C(=O)N[C@H](C(=O)N[C@@H](CCCCN)C(=O)NCC(=O)N[C@@H](CCCNC(=N)N)C(N)=O)C(C)C [GLP-1, reference compound]
[1]
  metabolic clearance rate: 12 to 13 min
